# Measured values reported in paper PMC7822592, “The half-life of the bone-derived hormone osteocalcin is regulated through O-glycosylation in mice, but not in humans” (eLife, 2020).
# No end group written: not given here. O‑glycan = not defined here
# Legend:
# [1] = Ex vivo half-life of mouse OCN in plasma; type: in vitro ADME; details: 100 ng/ml; for % OCN from initial: Bglap-/- mouse plasma
# Description: The mouse OCN ex vivo half-life assays were performed with fresh plasma (lithium heparin) collected from four independent Bglap-/- mice. Glycosylated OCN produced in HEK293 cells and non-glycosylated OCN, produced in bacteria as previously described ([Ferron et al., 2012]), were incubated at 100 ng/ml in plasma at 37°C and OCN level was measured at indicated time points using the total mouse OCN ELISA assay described previously ([Ferron et al., 2010b]). […] The detection antibody is a goat polyclonal antibody directed against the C-terminal region (amino acids 26 to 46) of mouse OCN (anti-CTERM OCN). This assay detects with the same sensitivity glycosylated and non-glycosylated mouse OCN at concentration of 50 ng/ml or less (Figure 3—figure supplement 2). Therefore, all samples were diluted to be in this range before being measured by the ELISA. Human OCN half-life assay was performed ex vivo using Bglap-/- mice plasma and human OCN at 60 ng/ml. Human OCN level was measured at different time point using the human ucOCN ELISA described above. At the experiment start point (T0), an aliquot of plasma was diluted in ELISA assay buffer and kept on ice for OCN measurements. In some experiments, plasma was heat-inactivated for 30 min at 56°C, or treated with EDTA (10 mM, Wisent), phenylmethylsulfonyl fluoride (PMSF, 10 mM, Sigma), pepstatin A (Pep A, 10 μM, Sigma) which inhibits aspartic proteases (pepsin, cathepsin D, renin, chymosin), RVKR (Dec-RVKR-CMK, 50 μM; Tocris) or talabostat (10 mM; Tocris). Results are calculated in percentage relative to the initial concentration of non-glycosylated and glycosylated OCN respectively.
# INS-1 832/3 cells [2] = assay: Ins1 gene expression in INS-1 832/3 cells treated with ucOCN; type: cell-based, rat; details: 8 hr, qPCR
# Description: (§1) The INS-1 832/3 rat insulinoma cell line (Millipore-Sigma) was cultured in RPMI-1640 with 11.1 mM D-glucose, supplemented with 2 mM L-glutamine, 1 mM sodium pyruvate, 10 mM HEPES, 0.05 mM β-mercaptoethanol and 10% FBS ([Hohmeier et al., 2000]). On day 1, cells were plated at 3 × 10^5 cells per well in 12-well plates and on day 5, cells were washed with PBS and incubated with culture media containing 5 mM D-glucose. Twenty-four hours later, cells were washed with PBS and incubated for 4 hr in culture media containing 1% FBS, 5 mM D-glucose and 0.1% BSA. OCN was added for 8 hr before supernatants and cells were harvested. ucOCN and O-gly ucOCN concentration were measured in supernatants by ELISA and cells were lyzed and RNA extracted as described in the material and methods section. Gene expression was analyzed using rat specific primers for Ins1 and Gapdh.
# INS-1 832/3 cells [3] = assay: OCN stability in INS-1 832/3 cell culture media; type: in vitro ADME, rat; details: 8 hours with INS-1 cells at 37°C, ELISA
# Description: as §1
# INS-1 832/3 cells [4] = assay: OCN stability in INS-1 832/3 cell culture media; type: in vitro ADME, rat; details: 8 hours at 4°C without cells, ELISA
substance,measurement,setting,value
"O-gly ucOCN: O-glycosylated uncarboxylated mouse osteocalcin produced and purified from HEK293 as Fc fusion, released by thrombin (YLGASVPS(O‑glycan)PDPLEPTREQCELNPACDELSDQYGLKTAYKRIYGITI; ends and bridges not checked; also: O-glycosylated (HexNAc, Hex, NANA); UniProt P86546 50-95, looked up)",% OCN from initial,"[1]; 37°C, 0 min, ELISA, replicate 1",100.0%
same,% OCN from initial,"[1]; 37°C, 0 min, ELISA, replicate 2",100.0%
same,% OCN from initial,"[1]; 37°C, 0 min, ELISA, replicate 3",100.0%
same,% OCN from initial,"[1]; 37°C, 0 min, ELISA, replicate 4",100.0%
same,% OCN from initial,"[1]; 37°C, 0 min, ELISA, replicate 5",100.0%
same,% OCN from initial,"[1]; 37°C, 15 min, ELISA, replicate 1",104.1%
same,% OCN from initial,"[1]; 37°C, 15 min, ELISA, replicate 2",103.7%
same,% OCN from initial,"[1]; 37°C, 15 min, ELISA, replicate 3",102.4%
same,% OCN from initial,"[1]; 37°C, 15 min, ELISA, replicate 4",105.4%
same,% OCN from initial,"[1]; 37°C, 15 min, ELISA, replicate 5",92.4%
same,% OCN from initial,"[1]; 37°C, 30 min, ELISA, replicate 1",101.9%
same,% OCN from initial,"[1]; 37°C, 30 min, ELISA, replicate 2",103.9%
same,% OCN from initial,"[1]; 37°C, 30 min, ELISA, replicate 3",104.6%
same,% OCN from initial,"[1]; 37°C, 30 min, ELISA, replicate 4",102.8%
same,% OCN from initial,"[1]; 37°C, 30 min, ELISA, replicate 5",91.2%
same,% OCN from initial,"[1]; 37°C, 60 min, ELISA, replicate 1",103.5%
same,% OCN from initial,"[1]; 37°C, 60 min, ELISA, replicate 2",108.3%
same,% OCN from initial,"[1]; 37°C, 60 min, ELISA, replicate 3",103.5%
same,% OCN from initial,"[1]; 37°C, 60 min, ELISA, replicate 4",102.6%
same,% OCN from initial,"[1]; 37°C, 60 min, ELISA, replicate 5",95.6%
same,% OCN from initial,"[1]; 37°C, 90 min, ELISA, replicate 1",108.4%
same,% OCN from initial,"[1]; 37°C, 90 min, ELISA, replicate 2",106.6%
same,% OCN from initial,"[1]; 37°C, 90 min, ELISA, replicate 3",107.8%
same,% OCN from initial,"[1]; 37°C, 90 min, ELISA, replicate 4",102.6%
same,% OCN from initial,"[1]; 37°C, 90 min, ELISA, replicate 5",92.9%
same,% OCN from initial,"[1]; 37°C, 120 min, ELISA, replicate 1",105.8%
same,% OCN from initial,"[1]; 37°C, 120 min, ELISA, replicate 2",103.2%
same,% OCN from initial,"[1]; 37°C, 120 min, ELISA, replicate 3",106.0%
same,% OCN from initial,"[1]; 37°C, 120 min, ELISA, replicate 4",107.0%
same,% OCN from initial,"[1]; 37°C, 120 min, ELISA, replicate 5",90.1%
same,% OCN from initial,"[1]; 37°C, 180 min, ELISA, replicate 1",106.8%
same,% OCN from initial,"[1]; 37°C, 180 min, ELISA, replicate 2",107.9%
same,% OCN from initial,"[1]; 37°C, 180 min, ELISA, replicate 3",107.4%
same,% OCN from initial,"[1]; 37°C, 180 min, ELISA, replicate 4",119.0%
same,% OCN from initial,"[1]; 37°C, 180 min, ELISA, replicate 5",78.8%
same,% OCN from initial,"[1]; 37°C, 300 min, ELISA, replicate 1",106.5%
same,% OCN from initial,"[1]; 37°C, 300 min, ELISA, replicate 2",103.5%
same,% OCN from initial,"[1]; 37°C, 300 min, ELISA, replicate 3",104.6%
same,% OCN from initial,"[1]; 37°C, 300 min, ELISA, replicate 4",102.2%
same,% OCN from initial,"[1]; 37°C, 300 min, ELISA, replicate 5",88.0%
same,% OCN from initial,"[1]; Figure 3D, 2hrs, 37°C, Not HI, ELISA, replicate 1",100.8%
same,% OCN from initial,"[1]; Figure 3D, 2hrs, 37°C, Not HI, ELISA, replicate 2",92.4%
same,% OCN from initial,"[1]; Figure 3D, 2hrs, 37°C, Not HI, ELISA, replicate 3",106.8%
same,% OCN from initial,"[1]; Figure 3D, T0, ELISA, replicate 1",101.5%
same,% OCN from initial,"[1]; Figure 3D, T0, ELISA, replicate 2",94.9%
same,% OCN from initial,"[1]; Figure 3D, T0, ELISA, replicate 3",103.6%
same,% OCN from initial,"[1]; Figure 3 supplement 3A, 37°C, T=2hours, replicate 1",90.8%
same,% OCN from initial,"[1]; Figure 3 supplement 3A, 37°C, T=2hours, replicate 2",95.5%
same,% OCN from initial,"[1]; Figure 3 supplement 3A, 37°C, T=2hours, replicate 3",95.0%
same,% OCN from initial,"[1]; Figure 3 supplement 3A, T0, replicate 1",105.0%
same,% OCN from initial,"[1]; Figure 3 supplement 3A, T0, replicate 2",101.3%
same,% OCN from initial,"[1]; Figure 3 supplement 3A, T0, replicate 3",93.7%
same,stable in plasma for,"[1]; fresh Bglap-/- mouse plasma (lithium heparin), 37°C, total mouse OCN ELISA, n = 4 plasma",more than 5 hr
same,Ins1 gene expression (Fold change relative to vehicle),"INS-1 832/3 cells [2]; 0.1 ng/mL, replicate 1",2.4 Fold change
same,Ins1 gene expression (Fold change relative to vehicle),"INS-1 832/3 cells [2]; 0.1 ng/mL, replicate 2",1.6 Fold change
same,Ins1 gene expression (Fold change relative to vehicle),"INS-1 832/3 cells [2]; 0.1 ng/mL, replicate 3",2.2 Fold change
same,Ins1 gene expression (Fold change relative to vehicle),"INS-1 832/3 cells [2]; 0.1 ng/mL, replicate 4",2.6 Fold change
same,Ins1 gene expression (Fold change relative to vehicle),"INS-1 832/3 cells [2]; 0.1 ng/mL, replicate 5",3.1 Fold change
same,Ins1 gene expression (Fold change relative to vehicle),"INS-1 832/3 cells [2]; 0.1 ng/mL, replicate 6",3.0 Fold change
same,Ins1 gene expression (Fold change relative to vehicle),"INS-1 832/3 cells [2]; 0.1 ng/mL, replicate 7",4.2 Fold change
same,Ins1 gene expression (Fold change relative to vehicle),"INS-1 832/3 cells [2]; 0.1 ng/mL, replicate 8",2.7 Fold change
same,Ins1 gene expression (Fold change relative to vehicle),"INS-1 832/3 cells [2]; 0.3 ng/mL, replicate 1",0.562 Fold change
same,Ins1 gene expression (Fold change relative to vehicle),"INS-1 832/3 cells [2]; 0.3 ng/mL, replicate 2",1.1 Fold change
same,Ins1 gene expression (Fold change relative to vehicle),"INS-1 832/3 cells [2]; 0.3 ng/mL, replicate 3",1.1 Fold change
same,Ins1 gene expression (Fold change relative to vehicle),"INS-1 832/3 cells [2]; 0.3 ng/mL, replicate 4",12.1 Fold change
same,Ins1 gene expression (Fold change relative to vehicle),"INS-1 832/3 cells [2]; 0.3 ng/mL, replicate 5",2.0 Fold change
same,Ins1 gene expression (Fold change relative to vehicle),"INS-1 832/3 cells [2]; 0.3 ng/mL, replicate 6",8.6 Fold change
same,Ins1 gene expression (Fold change relative to vehicle),"INS-1 832/3 cells [2]; 0.3 ng/mL, replicate 7",2.7 Fold change
same,Ins1 gene expression (Fold change relative to vehicle),"INS-1 832/3 cells [2]; 0.3 ng/mL, replicate 8",4.9 Fold change
same,Ins1 gene expression (Fold change relative to vehicle),"INS-1 832/3 cells [2]; 0.3 ng/mL, replicate 9",2.3 Fold change
same,Ins1 gene expression (Fold change relative to vehicle),"INS-1 832/3 cells [2]; 0.3 ng/mL, replicate 10",0.7 Fold change
same,OCN in stimulation media,INS-1 832/3 cells [3]; replicate 1,0.12 ng/mL
same,OCN in stimulation media,INS-1 832/3 cells [3]; replicate 2,0.13 ng/mL
same,OCN in stimulation media,INS-1 832/3 cells [3]; replicate 3,0.13 ng/mL
same,OCN in stimulation media,INS-1 832/3 cells [4]; replicate 1,0.15 ng/mL
same,OCN in stimulation media,INS-1 832/3 cells [4]; replicate 2,0.15 ng/mL
same,OCN in stimulation media,INS-1 832/3 cells [4]; replicate 3,0.14 ng/mL
